Assay [1] has as its target membrane receptor interacting with BLV (unknown) (human). Nature of the assay: flow cytometry, tagged RBD on sputum neutrophils of one CF patient. On the technique in general: A flow cytometer gives signals particle by particle.
For assay [2] the target is unchanged. Nature of the assay: flow cytometry, tagged RBD on blood neutrophils of one CF patient.

With “Bovine Leukaemia Virus receptor-binding domain (BLV RBD) (from UniProt P25507 34-215)”, the results for the deltaGeomean of fluorescence in assay [1] and in assay [2] were 140 and 0, respectively.

Source of the values: patent US20130260394A1.
